From the DeepSol protein solubility set

Experiment: soluble on expression in E. coli; label from the status in PepcDB or PDB records

Row | Sequence | soluble on expression in E. coli
1 | MGKNLSLRQDDAQHALSANTSSAYNSVYDFLRYHDRGDGLTVNGKTSYSIDQAAAQITRENVSWNGTNVFGKSANLTFKFLQSVSSIPSGDTGFVKFNAEQIEQAKLSLQSWSDVANLTFTEVTGNKSANITFGNYTRDASGNLDYGTQAYAYYPGNYQGAGSSWYNYNQSNIRNPGSEEYGRQTFTHEIGHALGLAHPGEYNAGEGDPSYNDAVYAEDSYQFSIMSFWGENETGADYNGHYGGAPMIDDIAAIQRLYGANMTTRTGDSVYGFNSNTDRDFYTATDSSKALIFSVWDAGGTDTFDFSGYSNNQRINLNEGSFSDVGGLKGNVSIAHGVTIENAIGGSGNDILVGNSADNILQGGAGNDVLYGGAGADTLYGGAGRDTFVYGSGQDSTVAAYDWIADFQKGIDKIDLSAFRNEGQLSFVQDQFTGKGQEVMLQWDAANSITNLWLHEAGHSSVDFLVRIVGQAAQSDIIV | soluble
2 | MGSDKIHHHHHHMSQKIAYQRLEDILKKGSRIALYARYSTGKQDENAQIHSVRNFLSDYGCELLDDNIYIDPKTSAVKVPMDQRKDLQRLIKDSKENKFDCIVSYKNDRIARNTQEHNELRTEMQRLGMPVVLSSTREIYTVGEIVPLTIKDALTQIEPLLIAERTRDTFSSKIENGEWTGGQAPYGYIYDKETELFEITDKKVEVVQEIFRLFKLGYGLQQIANKLIADRRDIGQKWYKDKIKYIITNPFYAGHMTMNRYVKGKLQLKMETWTWSKKQESIPAIMSRDEWEYCFYLYVERRKSQTVRKSSTPFWLRDILHCNECQLPFKTKNQKTKSKRKNGEKVEYGKILYECRNCGLKLETEKIHDKFKEDVGRVLKKLLEKHRENLIQQTQLQIEKEHEEITNVQKELANKRIKLIENIDVLDKKISQLYKDITTGKGLKANHTEDVLGKEDEQDDWNSKLVEILLTGRSQKHNDLEEIKQQQQLLEDKQESLNIVMNALKNQYQDELLNFSFDPENEKSMRNFLLQFVKAVYVSRDMRLDYKIYENLISE | not soluble
3 | MQKSYGVALESPTGSGKTIMALKSALQYSSERKLKVLYLVRTNSQEEQVIKELRSLSSTMKIRAIPMQGRVNMCILYRMVDDLHEINAESLAKFCNMKKREVMAGNEAACPYFNFKIRSDETKRFLFDELPTAEEFYDYGERNNVCPYESMKAALPDADIVIAPYAYFLNRSVAEKFLSHWGVSRNQIVIILDEAHNLPDIGRSIGSFRISVESLNRADREAQAYGDPELSQKIHVSDLIEMIRSALQSMVSERCGKGDVRIRFQEFMEYMRIMNKRSEREIRSLLNYLYLFGEYVENEKEKVGKVPFSYCSSVASRIIAFSDQDEEKYAAILSPEDGGYMQAACLDPSGILEVLKESKTIHMSGTLDPFDFYSDITGFEIPFKKIGEIFPPENRYIAYYDGVSSKYDTLDEKELDRMATVIEDIILKVKKNTIVYFPSYSLMDRVENRVSFEHMKEYRGIDQKELYSMLKKFRRDHGTIFAVSGGRLSEGINFPGNELEMIILAGLPFPRPDAINRSLFDYYERKYGKGWEYSVVYPTAIKIRQEIGRLIRSAEDTGACVILDKRAGQFRKFIPDMKKTSDPASDIYNFFISAQAREKYGA | soluble
4 | MTLYRQLLAREKENNPIRVGVIGAGQMGFGMISQIAAIPGMSVVGISDIHVDAAKKAADAYNATATKKEKILLSNDFKEIIHSDLVEVIVDATGVPEVGAKISLETLLAKKQLVLLNVEIDITIGPLMKKLYDSAGLVYTGSDGDEPAAITELYEFSKSMGMEVLVAGKGKNNKLKISANPDSCQVEADGKNMASHMLAAFQDGTKTMAEMNLLSNAIGYVPDVVGMHGISGDVDSVIKDLDLKEQGGILNQFGVVEYVDGLAPGVFVIVKGQNEGVSHELSYLMKKGERDHHILYRPYHLASLETPLTIAKAVLNHDHAIVPMGAPVSETVAVAKKDIAAGERLDGIGGFCVRGVLETHVDMAAEGHIPIGLISGEVVARRNIKAGTFITDEDVSLDESTTVWKLRKLQDETFSN | not soluble
5 | GPGSMLHRSLACFAVPADRKAFMELVKTLRYRTEAPISDCSAALKETDGDMDAAMQVLRKRGAARAMKKGDRVTEHGFVVSCVGSTPQSGAAIVTICSETDFAARNEHFQRVCMQVRDQLCKLMDATNGAVLANPEEAVKHLSDVMAEELRVAIAVLGENMRVRSIAPLVPAPHVSERLLIGSYTHGSLNVDNVGRIVGLVALSQVRENEVVPKDVLTSVGRHFVATSGAEGNYAHQNFFGSETETVGKWLKQRGLKFSSSLVQEFGKEPVVHTAPEPHR | not soluble
6 | MSLARNLKADKTKTIGVIVRDITGFDTSRTIRGVDDFCKGCDYNALIYNTDFDPETEAKSLEALYQMRVDGIIIASSGQNNTLISEYIDKGMPIVHFQLEHDGSEKNLILSDYRQAAFDATEYLIKLGHKRICFMTQDFKNVKSRNERYSGYVAALKKYDIVQDPALIQYWQRETGFDHSPKSVLESAAAPTAFFTQHLAITTELLTHLNQENITIPDDVSLIGFDDIPMAEFFKVPVTVIKQEPYIIGKEAAKLLLEKVNDKNRHSQKIMISCSITERQSCTEGHHHHHH | soluble
7 | MSLNVDPNITKYVIKAKIVTDGVVEKPDVVGAIFGQTEGLLGEELDLRDLQKSGKIGRIEVEIDTKKGRTEGFVLIPSGLDQVESSILAAALETIDRIGPCKAKVDIEDVEDVRINKRDKVIQRAEELYKKMGTNGKSLSESIIQSVREEVEKKEILSYGEEHLPAGPAVGTSDSIIVVEGRNDVLNLLRYGIKNTIAVQGTSVPKTVKELSKARTVTLFVDGDHGGELIIKEMLQVADVDFIARAPPGTEVEELTYKQIVKALKYKAPVNQYLESHGMIEELKEFTEKNNKAIADMNVNTTVKEEPQQKKQEKEPKHVETAEVEAPVIEEINDINDPRFVRNKLNELFESKAVEIYDDAGNPIARYPVSDAAELMQSVKNGTTIISGGVISQRFVDIAFSMGVKSIYGMKIGHVTKKPDEIRVVTWEHMEGHHHHHH | soluble
8 | MRGEFYQQLTNDLETARAEGLFKEERIITSAQQADITVADGSHVINFCANNYLGLANHPDLIAAAKAGMDSHGFGMASVRFICGTQDSHKELEQKLAAFLGMEDAILYSSCFDANGGLFETLLGAEDAIISDALNHASIIDGVRLCKAKRYRYANNDMQELEARLKEAREAGARHVLIATDGVFSMDGVIANLKGVCDLADKYDALVMVDDSHAVGFVGENGRGSHEYCDVMGRVDIITGTLGKALGGASGGYTAARKEVVEWLRQRSRPYLFSNSLAPAIVAASIKVLEMVEAGSELRDRLWANARQFREQMSAAGFTLAGADHAIIPVMLGDAVVAQKFARELQKEGIYVTGFFYPVVPKGQARIRTQMSAAHTPEQITRAVEAFTRIGKQLGVIA | soluble
9 | MLLDVQRGQLSFTKYSIITVIWLSLSRILNRGQLSLECFEFWQPTSQLLVLDVCLLDAFALEHHHHHH | not soluble
10 | MGSDKIHHHHHHMTMPTNQCPWRMQVHHITQETPDVWTISLICHDYYPYRAGQYALVSVRNSAETLRAYTISSTPGVSEYITLTVRRIDDGVGSQWLTRDVKRGDYLWLSDAMGEFTCDDKAEDKFLLLAAGCGVTPIMSMRRWLAKNRPQADVRVIYNVRTPQDVIFADEWRNYPVTLVAENNVTEGFIAGRLTRELLAGVPDLASRTVMTCGPAPYMDWVEQEVKALGVTRFFKEKFFTPVAEAATSGLKFTKLQPAREFYAPVGTTLLEALESNNVPVVAACRAGVCGCCKTKVVSGEYTVSSTMTLTDAEIAEGYVLACSCHPQGDLVLA | not soluble
11 | MNLDQAEITALTKRFETPFYLYDGDFIEAHYRQLRSRTNPAIQFYLSLKANNNIHLAKLFRQWGLGVEVASAGELALARHAGFSAENIIFSGPGKKRSELEIAVQSGIYCIIAESVEELFYIEELAEKENKTARVAIRINPDKSFGSTAIKMGGVPRQFGMDESMLDAVMDAVRSLQFTKFIGIHVYTGTQNLNTDSIIESMKYTVDLGRNIYERYGIVCECINLGGGFGVPYFSHEKALDIGKITRTVSDYVQEARDTRFPQTTFIIESGRYLLAQAAVYVTEVLYRKASKGEVFVIVDGGMHHHAASTFRGRSMRSNYPMEYIPVREDSGRRELEKVTIAGPLCTPEDCLGKDVHVPALYPGDLVCVLNSGAYGLSFSPVHFLGHPTPIEILKRNGSYELIRRKGTADDIVATQLQTESNLLFVDK | soluble
12 | LRPVLPTQSAHDPPAVHLSNGPGQEPIAVMTFDLTKITKTSSSFEVRTWDPEGVIFYGDTNPKDDWFMLGLRDGRPEIQLHNHWAQLTVGAGPRLDDGRWHQVEVKMEGDSVLLEVDGEEVLRLRQVSGPLTSKRHPIMRIALGGLLFPASNLRLPLVPALDGCLRRDSWLDKQAEISASAPTSLRSCDVESNPGIFLPPGTQAE | soluble
13 | MKLVDALGKPCPIPVIETKKALAELGLAGGTIEVLVDNEVAIENLKKLATKKQATLTAKQIEATVFSVKITVPEEATQQTSQSATDLVITIGSDQLGTGDEQLGRLLMKSYLQSLSEAETVPTQLLFFNRGAFLTNQAANTLADLQQLAEKGTTIQTCGACLDFYHLTDTLAIGSITNMYEIVETMNQAAKVITLLEHHHHHH | soluble
14 | MLDKQTMVTAHNALPGRTTAMSIDDTHFVNGSSLTAAPQSGQQQILIGMGCFWGAERLFWQLDGVISTSVGYSGGFTPNPTYEEVCSGKTGHTEVVRVIFDPERLPLTELLRAFWERHDPTQGMRQGNDRGTQYRSAIYTFSEDQREIAEASKAAYQALLTAQHRPSITTEILPAGAYYFAETYHQQYLAKNPNGYCGLGGTGVCFPPHSTL | not soluble
15 | MEEIMLFPLSSVVLPEGKMKLRIFEPRYQRMVAQCSKTGSGFGLCLFDSKSNKNANELSEFGTLVKIVDFETLSDGLLGITVVGIRRFAIRKVRVEYDGLRIATVQWFPDWPSQELLERERFLGEQLQEVYRQFPQIGELHSLCFFDDASWVCQRWLELLPLSKGQFDVLVGQRDCHAALAFLQRTIESHLDT | not soluble
16 | MFVDKNGVNMEKKLVKQQLLTGERALFASKDLRIEDSIFDDGESPLKESSNIELVNSSFKWKYPLWYCNNVNVKDCYFFEMGRAGVWYTNDINVEDTIIEAPKNFRRCNRLGLKNVEFVNAEETLWSCDNVTMTNVVAKGNYFAMNSNDMKIDGLKLVGNYPFDGSKNLEIRNSRLMSKDAFWNAENITVYDSYISGEYLGWNSKNLTFINCTIESLQGLCYIDNLVMKNCKLINTTLAFEYSTVDADITSRVDSVLNPTSGTITADSIDKLIIEKDKVDPSLTKIVCRN | not soluble
17 | MGSDKIHHHHHHMKKILIVTRTFGKYSQEPVEFLRKEGFEIIRSDTIDPDILKEVDALIVGTHPVTAEMVENSSLKIIAKHGVGVDNIDLEAATKKGIPVTITAGANSLSVAELTIAFIFALSRGLVWAHNKLFLERRWEGTVGQEVSGKTLGVVGFGSIGREVVKKAVCLGMNVLVYDPYVSKDSVRLLEATPVDDLEQLLKESDFVSLHVPLNESTKNMIGERELSLMKKSAFLINTSRGELVDEEALVKALKEGRIAGAALDVFSEEPPDANSPLFECPNLITTAHIGAHTKEAIFRMNMMAAQSIVDFFKGRIPRYVVNKEVIRILKEKGYQEIS | not soluble
18 | MMQIRPVSDLRNKFSEIENIIISNKSPVFLTKNGHGSMVLMSLDMYESLTDNVENRLDEADFQAASTNVRLSHKDVFSDIRSKI | not soluble
19 | MGSDKIHHHHHHYLFQTYGSNKGEIIECKNCYCFKDQWNNIKNNPSINKNAKVLSCWLYYDKASPKPALKIMLINKNKFHRFQYVDAICKNDEIVLEFNGTYKNLENEFSKGISTDEFMTSLDTVWKNAHNIFKTPSSKYSLFVTSKHSNSITKQSNAFYIGKNGALTKISEKDFPLNDVNYMNCSKLDEQDKSSENACIIFK | not soluble
